For 27 molecules, He/Con_2b and Ho/Con_2b results are on record in US20180155451A1 (published 2018).

The chains are these.
T1: FcγRIIb extracellular domain with C-terminal His tag (human, UniProt P31994 43-217)
T1 construct: extracellular domain; expressed in FreeStyle293 cells; analyte in the Biacore assay; also called FcgRIIb; 2b; not shown: His tag at the C terminus
T1 sequence (looked up): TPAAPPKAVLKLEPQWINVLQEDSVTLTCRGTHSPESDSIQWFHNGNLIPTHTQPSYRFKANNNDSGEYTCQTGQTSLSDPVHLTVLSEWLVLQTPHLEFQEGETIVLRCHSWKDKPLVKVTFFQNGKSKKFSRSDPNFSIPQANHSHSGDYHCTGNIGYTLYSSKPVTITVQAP

B1: GpH7-A5/GpH7-B3 variant I332_06M/GpL16-k0 (antibody, human IgG1, kappa)
heavy 1: not shown
heavy 2: not shown
light: DIVMTQSPLSLPVTPGEPASISCQASESLVHSNRNTYLHWYLQKPGQSPQLLIYKVSNRFSGVPDRFSGSGSGTDFTLKISRVEAEDVGVYYCSQNTHVPPTFGQGTKVEIERTVAAPSVFIFPPSDEQLKSGTASVVCLLNNFYPREAKVQWKVDNALQSGNSQESVTEQDSKDSTYSLSSTLTLSKADYEKHKVYACEVTHQGLSSPVTKSFNRGEC
notes: heterodimerized; mutation in the B3 H chain only; also called He Ab I332_06M
B2: GpH7-A5/GpH7-B3 variant H268_01G/GpL16-k0 (antibody, human IgG1, kappa)
heavy 1: not shown
heavy 2: not shown
light: B1 light
notes: heterodimerized; mutation in the B3 H chain only; also called He Ab H268_01G
B3: GpH7-A5/GpH7-B3 variant K326_16H/GpL16-k0 (antibody, human IgG1, kappa)
heavy 1: not shown
heavy 2: not shown
light: B1 light
notes: heterodimerized; mutation in the B3 H chain only; also called He Ab K326_16H
B4: GpH7-A5/GpH7-B3 variant P331_15Y/GpL16-k0 (antibody, human IgG1, kappa)
heavy 1: not shown
heavy 2: not shown
light: B1 light
notes: heterodimerized; mutation in the B3 H chain only; also called He Ab P331_15Y
B5: GpH7-A5/GpH7-B3 variant K326_20W/GpL16-k0 (antibody, human IgG1, kappa)
heavy 1: not shown
heavy 2: not shown
light: B1 light
notes: heterodimerized; mutation in the B3 H chain only; also called He Ab K326_20W
B6: GpH7-A5/GpH7-B3 variant K326_04F/GpL16-k0 (antibody, human IgG1, kappa)
heavy 1: not shown
heavy 2: not shown
light: B1 light
notes: heterodimerized; mutation in the B3 H chain only; also called He Ab K326_04F
B7: GpH7-A5/GpH7-B3 variant H268_18N/GpL16-k0 (antibody, human IgG1, kappa)
heavy 1: not shown
heavy 2: not shown
light: B1 light
notes: heterodimerized; mutation in the B3 H chain only; also called He Ab H268_18N
B8: GpH7-A5/GpH7-B3 variant A327_10E/GpL16-k0 (antibody, human IgG1, kappa)
heavy 1: not shown
heavy 2: not shown
light: B1 light
notes: heterodimerized; mutation in the B3 H chain only; also called He Ab A327_10E
B9: GpH7-A5/GpH7-B3 variant K334_10E/GpL16-k0 (antibody, human IgG1, kappa)
heavy 1: not shown
heavy 2: not shown
light: B1 light
notes: heterodimerized; mutation in the B3 H chain only; also called He Ab K334_10E
B10: GpH7-A5/GpH7-B3 variant S239_03V/GpL16-k0 (antibody, human IgG1, kappa)
heavy 1: not shown
heavy 2: not shown
light: B1 light
notes: heterodimerized; mutation in the B3 H chain only; also called He Ab S239_03V
B11: GpH7-A5/GpH7-B3 variant G237_04F/GpL16-k0 (antibody, human IgG1, kappa)
heavy 1: not shown
heavy 2: not shown
light: B1 light
notes: heterodimerized; mutation in the B3 H chain only; also called He Ab G237_04F
B12: GpH7-A5/GpH7-B3 variant I332_15Y/GpL16-k0 (antibody, human IgG1, kappa)
heavy 1: not shown
heavy 2: not shown
light: B1 light
notes: heterodimerized; mutation in the B3 H chain only; also called He Ab I332_15Y
B13: GpH7-A5/GpH7-B3 variant G236_10E/GpL16-k0 (antibody, human IgG1, kappa)
heavy 1: not shown
heavy 2: not shown
light: B1 light
notes: heterodimerized; mutation in the B3 H chain only; also called He Ab G236_10E
B14: GpH7-A5/GpH7-B3 variant P331_20W/GpL16-k0 (antibody, human IgG1, kappa)
heavy 1: not shown
heavy 2: not shown
light: B1 light
notes: heterodimerized; mutation in the B3 H chain only; also called He Ab P331_20W
B15: GpH7-A5/GpH7-B3 variant P238_09D/GpL16-k0 (antibody, human IgG1, kappa)
heavy 1: not shown
heavy 2: not shown
light: B1 light
notes: heterodimerized; mutation in the B3 H chain only; also called He Ab P238_09D
B16: GpH7-A5/GpH7-B3 variant P238_15Y/GpL16-k0 (antibody, human IgG1, kappa)
heavy 1: not shown
heavy 2: not shown
light: B1 light
notes: heterodimerized; mutation in the B3 H chain only; also called He Ab P238_15Y
B17: GpH7-A5/GpH7-B3 variant G236_09D/GpL16-k0 (antibody, human IgG1, kappa)
heavy 1: not shown
heavy 2: not shown
light: B1 light
notes: heterodimerized; mutation in the B3 H chain only; also called He Ab G236_09D
B18: GpH7-A5/GpH7-B3 variant K334_03V/GpL16-k0 (antibody, human IgG1, kappa)
heavy 1: not shown
heavy 2: not shown
light: B1 light
notes: heterodimerized; mutation in the B3 H chain only; also called He Ab K334_03V
B19: GpH7-A5/GpH7-B3 variant K334_02A/GpL16-k0 (antibody, human IgG1, kappa)
heavy 1: not shown
heavy 2: not shown
light: B1 light
notes: heterodimerized; mutation in the B3 H chain only; also called He Ab K334_02A
B20: GpH7-A5/GpH7-B3 variant I332_04F/GpL16-k0 (antibody, human IgG1, kappa)
heavy 1: not shown
heavy 2: not shown
light: B1 light
notes: heterodimerized; mutation in the B3 H chain only; also called He Ab I332_04F
B21: GpH7-A5/GpH7-B3 variant I332_14T/GpL16-k0 (antibody, human IgG1, kappa)
heavy 1: not shown
heavy 2: not shown
light: B1 light
notes: heterodimerized; mutation in the B3 H chain only; label printed T332_14T, read as I332_14T; also called He Ab I332_14T
B22: GpH7-A5/GpH7-B3 variant H268_09D/GpL16-k0 (antibody, human IgG1, kappa)
heavy 1: not shown
heavy 2: not shown
light: B1 light
notes: heterodimerized; mutation in the B3 H chain only; also called He Ab H268_09D
B23: GpH7-A5/GpH7-B3 variant L328_02A/GpL16-k0 (antibody, human IgG1, kappa)
heavy 1: not shown
heavy 2: not shown
light: B1 light
notes: heterodimerized; mutation in the B3 H chain only; also called He Ab L328_02A
B24: GpH7-A5/GpH7-B3 variant K326_03V/GpL16-k0 (antibody, human IgG1, kappa)
heavy 1: not shown
heavy 2: not shown
light: B1 light
notes: heterodimerized; mutation in the B3 H chain only; also called He Ab K326_03V
B25: GpH7-A5/GpH7-B3 variant K334_13S/GpL16-k0 (antibody, human IgG1, kappa)
heavy 1: not shown
heavy 2: not shown
light: B1 light
notes: heterodimerized; mutation in the B3 H chain only; also called He Ab K334_13S
B26: GpH7-B3 variant V266_06M/GpL16-k0 (antibody, human IgG1, kappa)
heavy: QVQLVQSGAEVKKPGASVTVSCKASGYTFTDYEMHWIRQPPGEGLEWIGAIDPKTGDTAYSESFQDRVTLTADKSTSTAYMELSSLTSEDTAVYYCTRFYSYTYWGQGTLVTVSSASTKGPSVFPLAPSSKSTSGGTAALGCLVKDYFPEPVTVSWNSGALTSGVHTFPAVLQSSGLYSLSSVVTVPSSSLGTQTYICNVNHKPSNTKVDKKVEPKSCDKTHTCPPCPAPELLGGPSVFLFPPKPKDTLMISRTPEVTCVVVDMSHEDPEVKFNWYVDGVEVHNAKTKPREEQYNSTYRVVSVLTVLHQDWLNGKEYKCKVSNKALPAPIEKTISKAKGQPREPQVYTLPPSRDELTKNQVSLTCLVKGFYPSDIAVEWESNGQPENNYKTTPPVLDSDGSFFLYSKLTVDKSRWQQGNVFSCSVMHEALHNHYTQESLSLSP
light: B1 light
notes: homodimerized; mutation in both H chains; also called Ho Ab V266_06M
B27: GpH7-B3 variant Y296_20W/GpL16-k0 (antibody, human IgG1, kappa)
heavy: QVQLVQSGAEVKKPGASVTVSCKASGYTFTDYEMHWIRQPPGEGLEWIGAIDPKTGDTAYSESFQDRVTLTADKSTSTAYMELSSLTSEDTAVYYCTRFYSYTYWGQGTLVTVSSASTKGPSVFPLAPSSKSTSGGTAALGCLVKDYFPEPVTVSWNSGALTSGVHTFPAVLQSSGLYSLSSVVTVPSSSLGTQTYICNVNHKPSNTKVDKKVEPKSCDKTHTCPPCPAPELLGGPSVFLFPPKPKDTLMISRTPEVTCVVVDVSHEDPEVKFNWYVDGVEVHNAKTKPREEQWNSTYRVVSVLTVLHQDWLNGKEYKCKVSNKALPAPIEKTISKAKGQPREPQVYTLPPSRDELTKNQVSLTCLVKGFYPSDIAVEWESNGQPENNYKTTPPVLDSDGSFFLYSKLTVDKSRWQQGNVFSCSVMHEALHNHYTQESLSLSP
light: B1 light
notes: homodimerized; mutation in both H chains; also called Ho Ab Y296_20W

One assay concerns the target T1, FcγRIIb extracellular domain with …. The experiment in a line: SPR (Biacore), captured antibody, FcγRIIb analyte; binding relative to GpH7-A5/GpH7-B3/GpL16-k0 = 100.
For the molecule B1, the He/Con_2b is 105 % of control.
Still for that read-out and setting: as for B2, the figure is 144 % of control; as for B3, 119 % of control; as for B4, 114 % of control.
On the same count and under the same terms, as for B5, the figure is 148 % of control; as for B6, 155 % of control.
B7: the He/Con_2b is 156 % of control.
The same measure, in the same setting: as for B8, the figure is 140 % of control; as for B9, 114 % of control.
The same measure, in the same setting: as for B10, the figure is 108 % of control; as for B11, 149 % of control; as for B12, 101 % of control.
Same read-out and setting: as for B13, the figure is 110 % of control; as for B14, 111 % of control; as for B15, 221 % of control.
Take B16: the He/Con_2b was 218 % of control.
The same measure, in the same setting: as for B17, the figure is 167 % of control.
Same read-out and setting: as for B18, the figure is 125 % of control.
With B19, the He/Con_2b was 108 % of control.
With B20, the He/Con_2b is 104 % of control.
On to B21, for which the He/Con_2b was 106 % of control.
Take B22: the He/Con_2b was 239 % of control.
Still for that read-out and setting: as for B23, the figure is 144 % of control; as for B24, 175 % of control; as for B25, 111 % of control.

The target is the same in the next assay. The experiment in a line: SPR (Biacore), captured antibody, FcγRIIb analyte; binding relative to GpH7-B3/GpL16-k0 = 100.
B26: the Ho/Con_2b was 231 % of control.
On the same count and under the same terms, as for B27, the figure is 103 % of control.
